System: IL-8
Assay: LPS stimulated IL-8 ELISA in U937 macrophages, PAAG and lactoferrin
Type: cell-based, human
Conditions: 100 ng/ml lactoferrin pretreatment 1 hour, LPS stimulation; at 24 hours; FIG. 31

B1: lactoferrin: Lactoferrin, comparator pretreatment at 100 ng/ml (protein, UniProt P02788 20-710, looked up)
Lactotransferrin: GRRRSVQWCAVSQPEATKCFQWQRNMRKVRGPPVSCIKRDSPIQCIQAIAENRADAVTLDGGFIYEAGLAPYKLRPVAAEVYGTERQPRTHYYAVAVVKKGGSFQLNELQGLKSCHTGLRRTAGWNVPIGTLRPFLNWTGPPEPIEAAVARFFSASCVPGADKGQFPNLCRLCAGTGENKCAFSSQEPYFSYSGAFKCLRDGAGDVAFIRESTVFEDLSDEAERDEYELLCPDNTRKPVDKFKDCHLARVPSHAVVARSVNGKEDAIWNLLRQAQEKFGKDKSPKFQLFGSPSGQKDLLFKDSAIGFSRVPPRIDSGLYLGSGYFTAIQNLRKSEEEVAARRARVVWCAVGEQELRKCNQWSGLSEGSVTCSSASTTEDCIALVLKGEADAMSLDGGYVYTAGKCGLVPVLAENYKSQQSSDPDPNCVDRPVEGYLAVAVVRRSDTSLTWNSVKGKKSCHTAVDRTAGWNIPMGLLFNQTGSCKFDEYFSQSCAPGSDPRSNLCALCIGDEQGENKCVPNSNERYYGYTGAFRCLAENAGDVAFVKDVTVLQNTDGNNNEAWAKDLKLADFALLCLDGKRKPVTEARSCHLAMAPNHAVVSRMDKVERLKQVLLHQQAKFGRNGSDCPDKFCLFQSETKNLLFNDNTECLARLHGKTTYEKYLGPQYVAGITNLKKCSTSPLLEACEFLRK
Q: B1 was tested. Which IL-8 secretion suppression did it give?
A: The IL-8 secretion suppression was “IL-8 secretion suppression”.

Reference: patent US20170304355A1, “COMPOSITIONS AND METHODS OF USE THEREOF” (priority 2014, published 2017)
